Source: a protein production outcome set (Wang et al. 2014)

Assay: label from the status in PepcDB records

MLLDVKFTKNTCTKLIGLWLKFFLFYSLLPFSTSAQEASFRFKRLGLEDGLSQISVNGIAQDVNGFIWFATQDGLNKYDGYQITTYRHQPSDPNSIINNHIHSIFKDSKHNLWIGSYGGLSKYEPKTDNFTHYNSPSLNDSDGKVGYIQSLFEDSDGELWLSSNMGLYRYSIDTNTYILYLPDDNKPNSVIHSEIKSIAEDSIGNIWIGTTIGVSKYNKRNNTFTNYQHSPENPHSLSNNFVLKIYKDSQNNLWFGTFGGGLDRYDNDTSKFVHHRTNTQNKNSLGNNYIRTILEDSAGMLWLGTNNGLYAFDSSKLIFQRFRHSVNDRHSLSHDVIYSLFQDKDGSLWAGTLGGGVNLFRPSTNVFKHYKSNPNNPESLNANMVYAIYDDDEYVWVGTSGGGLNKLNKTTGKFSNFTEPETSVGLGLNKVNYIIKASEAELWLSTNSDGLLKYNKNTGNITQYKHHPDDRNSLSNNRARGLAIDKEGNLWIGTAGGGLNKLDPISGQFTHFMPDTDNPNSISTNFIRCLLYDSKGRLWTGSYGQGLNRFDFDTQTFINFNKDSVKEPILSNKFIRSIFEDKSGNIWVLTNGGIIKYDESKGSFHSYTTTDGLPSNVVYGALEDQKNNLWLSTNNGLSKFNPQNITFENYTKEEGIQENEFNTGSFFKNKTGEMYFGGINGFTLFHPDKIKKDKTIPTVSFTNLLLYNDAIAIGESERFSSHISSTNALNFAHNDDVITFEFSALSYSQANNISYRYQLQGFSDNWIETDHNHRRATFTNLSKGDYILKVKASNRNRSWGEETTDLRITIAAAYWETTWFRGLLLAIGFIVFVIAIKWREKALNNQNLVLDIMVKERTKELESSQEYSNKLEKLVQKRTLNLQKANTALEQSSITDALTGIRNRRFLDQQLSSDWAIQSRNNLPLSILMIDIDYFKKYNDYYGHQQGDECLQKIAKEIQSVINRPTDNLCRYGGEEFVVITYNDAEGAKHIAKLILKKLDELALVHLTSDKGIVSVSIGLGTMVPSIEVAPARLLKYADDALYQAKNNGRDQLC
protein production: failed

MKSAPDWIAHPDTPYLLIDEAKLKSNINYLKQRVESLGSHLRPHLKTLRTLEAAGYLLDSKSAPATVSTLAEAEAYAKAGYTDLLYAVGIAPAKLKRVAALRQQGINLHILLDNITQAQAVVDYAAEFGQDFSVFIEIDSDDHRGGIKPSDSKLLTIAKTLGEHFTGLMTHAGGSYACNTEQGLKNFAKQECDAVRIARNNLETAGIHCAITSVGSTPTAHFGEDFSDISEVRAGVYTTFDLVMKNIGVCDFSHIAMSVVTTVIGHNKEKNWLLTDSGWMALSRDSGTAGQNRDFGYGQVCKIDGSVLDGLCVNSTSQEHGVIELSDAYQLEDFPVGHQLRIMPNHACATAAMHPVYHVLMSDGSHNTWQRITGW
protein production: not failed

MKKVFDVWDVETAKRFLEIIKDEPIYYPALIALHTGMRAGEILSLKWCDVNFETRVISIVKSERKNRGLKTVNLKTKTSKRAVYMNDILYKELKNLYEITKPKPDDFVCPRLPTGNLTVNYLSRKFKKLVKKHNFPLIRFHDLRHTFATLMLSLGVNTKIVAEILGHSDIKLTADTYSHVLPTMQEEAMKEFVKLWKLEHHHHHH
protein production: not failed

MDLPITLSKETPFEGEEITVSARVTNRGAAEAHNVPVAVYLGNPAQGGVEIGRDTISRIPVGGTGLARVQWKATRKLAGRAANPGVPVYAVVDPDNRVAESDKANLEHHHHHH
protein production: not failed

MTEMHRLLQRQLKKFGFTADGLPQNLESWTQFIAHINKTYYENDQDRYLLERSIDISSKEMRDINAKLEYAQDIAQIGYWHYDADTDTATWSKGLFKILGLPPSNVALNYSSFLDLVHPNDKAGLKNVVEKALKEKEDYDYELRVRNGDNDYKWYRTIARANPHKNEISGVLMDISKRKIIEEQVHELNNKLVSTARLAGMSEVATSILHNVGNILNSVNVSAIILKKNISKIHYKKLSAIKTMLDENINQLSEYLLQNPKGKLILPYLDALSKTLHEEYEENMKESNSLETNINHIKEIIAMQQSLSGLSNLTEKISIHDVILNAVKSVILDKHQIDVRIEIEPDINEFITDKSKLFQILTNLLANAKDSVLLHEANDSRKVVISIGRTEKNHIMIKINDNGIGIQKDNLDRIFSFGFTTKKNGHGFGLHCSAIYARDLGGTLYAESNGNGKGAQFVLDLPINPKTLSTR
protein production: failed

MERISLSFVGDVMLAGSATDTLQRYGYSYPFSATAAELRRSDLVVGNLEAPLTDGGREFRAKRFRFKASPVAAAALKRAGFSVMTLANNHMMDFGADGLSDTIHHLNRNGIAFAGAGPSIADARREASVTVRGQTVAFLAYSLTQPIEFFATEGRPGTAPGYAGHYLADIRRVRSSADHVVVSFHWGQERAALPSPYQIETAHRAIDAGADIVIGHHPHVLQGIEIYRGSPIFYSLGNFAFGSRSPSADRSIIARVTLGEGPPIVEVIPLNVLFREVRFQPAILTGRKAADVVDRLNRLSAPFSTVITSTAGSHLVAPAEANARLARRQLEHHHHHH
protein production: failed

MAKVKVLFVRNLANTVTEEILEKAFSQFGKLERVKKLKDYAFIHFDERDGAVKAMEEMNGKDLEGENIEIVFAKPPDQKRKERKAQRQAA
protein production: not failed

MPQKTKDTPMMRQYFAVKNQYPDAFLFYRLGDFYEMFFDDAIKGAQLLELTLTTRNHSAENPIPMCGVPHRAVQNYIDILVDKGYKVAICEQMEDPKLAKGMVKREVIQLVTPGTTLERGAEQAKTNNYLTALIQRDQQYGFAYADLSTGELKTSVLTTNDTLINELTSLQTKEIVVDDSVASDLRDQIKTLGILISEQNNVTPQAQLSYLTQDLTVDLEQQVVERLLMYITVTQKRSLAHLQKAIAYEPSYFLKLDHNSKYNLELMKSIRTGKKQGTLLWLLDETKTAMGGRLLKQWIDRPLIVKADIETRQNKVATLLDHYFERSNLQEELTKVYDLERLAGRVAFGSVNGRDLVQLKTSLRQIPKIRYILSELDTQVFNDEVNQLDPVEDVADLIDAAIVEDAPLSVTDGGVIKDGYNEQLDQYRDAMNNGKKWIAELEAQERATTGIKNLKIGFNRVFGYYIEVTKANLAQLPKDRYERKQTLTNAERFSTPELKSHESLILEAESHSTDLEYQLFTKVRETVKKAIQRLQTLAKAVAAIDVLQSFAVVSEDYHFVRPKLTKSHDLKIVDGRHPVVEKVMGNQSYVPNNVTMSPDETVLLITGPNMSGKSTYMRQLALTVIMAQIGCFVPAKSAQLPIFDQIFTRIGATDDLISGQSTFMVEMQEANNALQHATANSLVLFDEIGRGTATYDGMALAQAIIEFVHNHIHAKTLFSTHYHELTALDQELSGLRNVHVGATEQDGELVFLHKVEPGAADKSYGVHVAKLAGMPTSLLERANKILTSLENQTSTVSTTAASIAASDAANSVAPNTAASMPVEAADESQPVESETPVAEAPVAEAGDEQLSLFAEPAVTDAKGEKVLQQLKTLNLMAMTPMDVMNQLYKWQQKLGK
protein production: failed

MGHHHHHHSHMASPSKAVIVPGNGGGDVTTHGWYGWVKKELEKIPGFQCLAKNMPDPITARESIWLPFMETELHCDEKTIIIGHSSGAIAAMRYAETHRVYAIVLVSAYTSDLGDENERASGYFTRPWQWEKIKANCPYIVQFGSTDDPFLPWKEQQEVADRLETKLHKFTDCGHFQNTEFHELITVVKSLLKVPA
protein production: failed

MGMHGAAHIVWDWNGTLFHDNAAIIGATNAAFAELGLEPITLERYRALYCVPVPKFYERLIGRLPTDAEWEIMDEIFHRYYAEHRVGCGLTEGAAELLVEWQSAGHSQSILSMYVHDELVPLVRGFGIEPHFIRVDGRTGPSGGSKAEHMVRHIGALAGVAGVDPARTVVIGDAADDAVAALHVGAQAVLYTGGSHSRASLEGVGVPVVDTLAEAVEEAGRLAA
protein production: failed

MKSACSIITASIVLYKSKPDIIRDVITSFFSDTVTKKKLILIDNSPTDSLRVLQEERPEDIQYFFNNRNIGFGSAHNIGIREAARFNPSYHLILNPDVQFGPEVVPTLASYMDENPDIGLLMPQVYYPNGELQHLCKLFPRPWDVMLRRFVPYRSYRERNNERFELRNWSYDTIQDIPSLSGCFMFARMDILREVGGFDERFFMYAEDLDLCRRIGQVSRTVFFPKVSIMHTYAKGSYHDAKLLRHHIVSLIRYFNKWGWLFDAERRRVNRACLAVLRNQTTVKKD
protein production: failed

SPEYGMPSVTFGSVHPSDVLDMPVDPNEPTYCLCHQVSYGEMIGCDNPDCSIEWFHFASCGADNQPRGKWXFPRCSQE
protein production: not failed
